T1: hexahistidine-tagged cynomolgus monkey IL-4Rα extracellular domain (cynomolgus monkey, UniProt P24394 26-231 (human entry))
T1 construct: also called cynomolgus monkey IL-4Rα ECD; not shown: hexahistidine tag
T1 chain: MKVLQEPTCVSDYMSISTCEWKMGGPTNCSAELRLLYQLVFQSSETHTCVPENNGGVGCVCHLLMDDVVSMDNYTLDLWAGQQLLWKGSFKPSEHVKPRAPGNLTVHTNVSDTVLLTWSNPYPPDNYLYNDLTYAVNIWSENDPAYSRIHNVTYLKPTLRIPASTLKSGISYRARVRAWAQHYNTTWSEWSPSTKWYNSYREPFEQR


Key:
[1] = molecular target: T2, hexahistidine tagged human IL-4Rα ECD T108R (human, UniProt P24394 26-232); experiment: capture ELISA: Ab1 on anti-human IgG Fc, His-tagged receptor at 0.04 µg/mL, anti-His HRP
T2 construct: also called D108R; not shown: hexahistidine tag

[2] = molecular target: T3, hexahistidine tagged human IL-4Rα ECD H197G (human, UniProt P24394 26-232); experiment: as above
T3 construct: not shown: hexahistidine tag
T3 sequence (P24394 26-232 H222G): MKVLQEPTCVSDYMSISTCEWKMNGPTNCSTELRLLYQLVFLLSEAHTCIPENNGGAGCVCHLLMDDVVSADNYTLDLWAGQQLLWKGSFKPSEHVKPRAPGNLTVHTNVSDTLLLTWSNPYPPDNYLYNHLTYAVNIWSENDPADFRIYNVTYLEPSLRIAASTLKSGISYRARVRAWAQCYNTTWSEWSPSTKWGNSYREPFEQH
Text: (§1) Example 2d. […] Briefly, thirty surface amino acid residue substitutions were introduced individually into hexahistidine tagged human IL-4Rα extra cellular domain (ECD) as follows: K2D, E6R, K22D, P26R, T31R, F41A, L42G, L43G, E45R, E52R, G56R, D66R, A71R, Q82G, K87D, E94R, H107A, D108R, P124R, D125R, D143R, R148D, L155R, R160D, S164R, S168R, Q181R, P192R, K195D, or H197G. Each mutant protein having a single amino acid residue substitution as described above was transiently expressed in CHO cells and purified using standard immobilized metal affinity chromatography techniques. […] The plates were then washed 3 times with PBST and the exemplified human IL-4Rα antibody was added to the wells at a final concentration of 1 μg/mL in PBS-casein and incubated for 1 hour at room temperature. The plates were washed 3 times with PBST, the IL-4Rα mutant proteins were serially diluted 5-fold from 1 μg/mL for 3 points. in PBS-casein and added to the plate at 50 μL/well and incubated for 1 hour at room temperature. The plates were washed 3 times with PBST and a 1000-fold dilution of anti-histidine tag antibody HRP conjugate (R&D Systems, Cat. #MAB050H) in PBS-casein was added and incubated for 45 minutes at room temperature. The plates were washed 3 times, TMB substrate (Pierce, Cat. #34028) was added per manufacturer instructions, the reaction was quenched with H₂SO₄, and absorbance was read at 450 nm on an ELISA plate reader.

[3] = molecular target: T4, hexahistidine tagged human IL-4Rα ECD K87D (human, UniProt P24394 26-232); experiment: as above
T4 construct: not shown: hexahistidine tag
T4 sequence (P24394 26-232 K112D): as the sequence (P24394 26-232 H222G) above, with K87D, G197H counted along it
Text: as §1

[4] = molecular target: T5, hexahistidine tagged human IL-4Rα ECD L42G (human, UniProt P24394 26-232); experiment: as above
T5 construct: not shown: hexahistidine tag
Text: as §1

[5] = molecular target: T6, hexahistidine tagged human IL-4Rα ECD K195D (human, UniProt P24394 26-232); experiment: as above
T6 construct: not shown: hexahistidine tag
T6 sequence (P24394 26-232 K220D): as the sequence (P24394 26-232 H222G) above, with K195D, G197H counted along it
Text: as §1

[6] = molecular target: T1, hexahistidine-tagged cynomolgus monkey …; experiment: competition MSD ELISA (solution equilibrium, 37 °C), apparent KD, mean of 3 experiments
Protocol: Example 3a. […] A 96-well multi-array plate (Meso Scale Diagnostics, Cat. #L15XA-3) was coated at 4° C. overnight with 0.5 μg/mL hexahistidine-tagged human or cynomolgus monkey IL-4Rα ECD in phosphate buffered saline (PBS). Following coating, plates were washed 10 times with 200 μL PBST (PBS with 0.05% Tween® 20) and blocked with 300 μL/well of PBS casein blocking buffer (Pierce, Cat. #37528) at 37° C. for 1 hour. Plates were then washed 10 times as above, and 50 μL of the preincubated antibody:IL-4Rα dilution series was transferred to the wells and incubated at 37° C. with 300 rpm shaking for […]. Plates were washed 10 times with PBST, 50 μL of 1 μg/mL anti-human antibody sulfo-tag 20 (Meso Scale Diagnostics, Cat. #R32AJ-1) was added to the plates for the assay of Table 7a, and anti-Human NHP Kappa Light chain SULFO-TAG 20 (Meso Scale Diagnostics, Cat #D20TF-6) was added to the plates for the assay of Table 7b, and plates were incubated at 37° C. with 300 rpm shaking for 30 minutes. Plates were washed 10 times with PBST, 150 μL/well of 1× Read Buffer T was added to the wells and analyzed on a SECTOR® Imager 6000 (Meso Scale Diagnostics) 15 min after buffer addition. The apparent KD is determined by fitting a sigmoidal curve to the electrochemiluminescence (ECL) response vs. log (soluble IL-4Rα concentration) using GraphPad Prism 9. Data is graphed with normalized ECL values.

| ELISA (OD450) [1] [OD450] | ELISA (OD450) [2] [OD450] | ELISA (OD450) [3] [OD450] | ELISA (OD450) [4] [OD450] | ELISA (OD450) [5] [OD450] | Kd [6] [nM] | Binder |
| --- | --- | --- | --- | --- | --- | --- |
| 1.41 | 0.967 | 0.911 | 0.965 | 0.992 |  | anti-human IL-4Rα antibody Ab1 (antibody, human IgG4 S228P, kappa, human kappa light chain; also called anti-human IL-4Rα Ab1; unconjugated Ab1) heavy: QVQLVESGGGLVQPGGSLRLSCVASGFTFSHSSMNWVRQAPGKGLEWVSYISRATGAVYYADSVKGRFTISRDNAKNSLYLQMNSLRDEDTAVYYCAREPVFDYWGQGTLVTVSSASTKGPCVFPLAPCSRSTSESTAALGCLVKDYFPEPVTVSWNSGALTSGVHTFPAVLQSSGLYSLSSVVTVPSSSLGTKTYTCNVDHKPSNTKVDKRVESKYGPPCPPCPAPEFLGGPSVFLFPPKPKDTLMISRTPEVTCVVVDVSQEDPEVKFNWYVDGVEVHNAKTKPREEQFNSTYRVVSVLTVLHQDWLNGKEYKCKVSNKGLPSSIEKTISKAKGQPREPQVYTLPPSREEMTKNQVSLTCLVKGFYPSDICVEWESNGQPENNYKTTPPVLDSDGSFFLYSRLTVDKSRWQQGNVFSCSVMHEALHNHYTQKSLSLSLG light: DIQMTQSPSAMSASVGDRVTITCRASQDISNYLAWFQQKPGKVPTRLIYAASSLQSGVPSRFSGSGSGTEFTLTISSLQPEDFATYYCLQWSSYPRTFGQGTKVEIKRTVAAPSVFIFPPSDEQLKSGTASVVCLLNNFYPREAKVQWKVDNALQSGNSQESVTEQDSKDSTYSLSSTLTLSKADYEKHKVYACEVTHQGLSSPVTKSFNRGEC |
|  |  |  |  |  | 0.0458 | anti-human IL-4Rα Ab1 GC conjugate of Example 1b (n=4) (antibody, human IgG4 S228P, kappa, glucocorticoid receptor agonist payload-linker (GC-L, Preparation 8) conjugated to the engineered cysteines at the 124 and 378 position of the heavy chain (EU numbering); n is 4 (average DAR 4.17 by RP-HPLC, 3.85 by TOF MS)) heavy: QVQLVESGGGLVQPGGSLRLSCVASGFTFSHSSMNWVRQAPGKGLEWVSYISRATGAVYYADSVKGRFTISRDNAKNSLYLQMNSLRDEDTAVYYCAREPVFDYWGQGTLVTVSSASTKGPCVFPLAPCSRSTSESTAALGCLVKDYFPEPVTVSWNSGALTSGVHTFPAVLQSSGLYSLSSVVTVPSSSLGTKTYTCNVDHKPSNTKVDKRVESKYGPPCPPCPAPEFLGGPSVFLFPPKPKDTLMISRTPEVTCVVVDVSQEDPEVKFNWYVDGVEVHNAKTKPREEQFNSTYRVVSVLTVLHQDWLNGKEYKCKVSNKGLPSSIEKTISKAKGQPREPQVYTLPPSREEMTKNQVSLTCLVKGFYPSDICVEWESNGQPENNYKTTPPVLDSDGSFFLYSRLTVDKSRWQQGNVFSCSVMHEALHNHYTQKSLSLSLG light: DIQMTQSPSAMSASVGDRVTITCRASQDISNYLAWFQQKPGKVPTRLIYAASSLQSGVPSRFSGSGSGTEFTLTISSLQPEDFATYYCLQWSSYPRTFGQGTKVEIKRTVAAPSVFIFPPSDEQLKSGTASVVCLLNNFYPREAKVQWKVDNALQSGNSQESVTEQDSKDSTYSLSSTLTLSKADYEKHKVYACEVTHQGLSSPVTKSFNRGEC |

Reference: patent US20240100176A1 (Eli Lilly, published 2024)
